Columns and labels:
SJL/elite EAE mice = assay: Suppression of EAE relapse, clinical scores; format: in vivo; conditions: BDNF 5.71 nmol/kg and/or ADTC5 10 μmol/kg i.v.
Method: EAE Mouse Model: EAE disease in animals (5-8-week-old SJL/elite female mice, Charles River) was stimulated by injecting 200 μg of PLP139-151 peptide in a 0.2 mL emulsion containing equal volumes of PBS and complete Freund's adjuvant (CFA) with killed mycobacterium tuberculosis strain H37RA (Difco, Detroit, Mich.; final concentration 4 mg/mL) as described in Kobayashi, N.; Kiptoo, P.; Kobayashi, H.; Ridwan, R.; Brocke, S.; Siahaan, T. J. Prophylactic and therapeutic suppression of experimental autoimmune encephalomyelitis by a novel bifunctional peptide inhibitor. Clin Immunol 2008, 129, (1), 69-79 and Kobayashi, N.; Kobayashi, H.; Gu, L.; Malefyt, T.; Siahaan, T. J. Antigen-specific suppression of experimental autoimmune encephalomyelitis by a novel bifunctional peptide inhibitor. J Pharmacol Exp Ther 2007, 322, (2), 879-86. Briefly, […] of PLP/CFA emulsion was administered to four different regions above the shoulders and the flanks on Day 0 followed by intraperitoneal injection of 200 ng of pertussis toxin (List Biological Laboratories, Campbell, Calif.) on Days 0 and 2. Clinical scores that reflect the disease progression were determined using an 11-point scale with 0.5 increments ranging from 0 to 5; 0 being no apparent disease and 5 being moribund. On Day 21, mice were randomly separated into […]: (i) BDNF (5.7 nmol/kg)+ADTC5 (10 μmol/kg; n=7), (ii) BDNF alone (5.71 nmol/kg, n=6), (iii) ADTC5 alone (10 μmol/kg; n=5), and (iv) vehicle (n=5). All mice received 8 intravenous injections every 4 days beginning on Day 21. The mice were euthanized via CO2 inhalation on Day 55. Area under the curve (AUC) calculations were used to compare clinical scores across groups; AUC calculations were performed using the trapezoid rule from Days 21 to 55.

[1] = system: recombinant BDNF and pTrkB; assay: Western blot detection of recombinant BDNF and pTrkB in brain; format: in vivo, SJL/elite mice; conditions: BDNF 5.71 nmol/kg i.v. with or without ADTC5 10 μmol/kg; 20 min; n=3
Method: Female SJL/elite mice, 5 weeks of age (Charles River) were initially intravenously injected via lateral tail vein with 5.71 nmol/kg BDNF (Peprotech, Rocky Hill, N.J.) with (n=3) or without (n=3) 10 μmol/kg ADTC5. BDNF was allowed to circulate for 20-30 min prior to euthanasia via CO2. Immediately following euthanasia, mice were transcardially perfused with protease inhibitor infused TRIS buffer (pH 7.4). The brains of the mice were extracted and placed in the perfusate buffer on ice. For Western blotting, 100-150 mg of brain tissue was sectioned from the most ventral-posterior portion of the brain and placed in 200-250 μL of solution mixture containing 66% tissue protein extraction reagent (TPER; Thermo Fisher, Waltham, […].) and 33% […] neural protein extraction reagent (NPER; Thermo Fisher) with protease and phosphatase inhibitors (Thermo Fisher). […] These bands were not densiometrically analyzed due to high background signal; however, they are shown for qualitative analysis.
To improve the level of detection of BDNF and pTrkB bands via Western blot, the above process was repeated with an increase in dosages of BDNF. […] These images were not quantified due to the variation in dosing regiments; however, they are provided for qualitative analysis of BDNF brain depositions.

B1: BDNF: recombinant brain-derived neurotrophic factor (13 kDa monomer), Peprotech (protein, UniProt P23560 19-247, looked up)
Neurotrophic factor BDNF …: APMKEANIRGQGGLAYPGVRTHGTLESVNGPKAGSRGLTSLADTFEHVIEELLDEDQKVRPNEENNKDADLYTSRVMLSSQVPLEPPLLFLLEEYKNYLDAANMSMRVRRHSDPARRGELSVCDSISEWVTAADKKTAVDMSGGTVTVLEKVPVSKGQLKQYFYETKCNPMGYTKEGCRGIDKRHWNSQCRTTQSYVRALTMDSKKRIGWRFIRIDTSCVCTLTIKRGR
locomotion / paralysis observed (SJL/elite EAE mice; 8 injections): partial or full hind leg paralysis and full tail paralysis | EAE clinical body scores (SJL/elite EAE mice; 8 injections every 4 days from day 21, compared with other groups/vehicle): no significant difference | detection of BDNF bands in the brain [1]: undetected

— patent US20220227815A1, “COMPOSITIONS AND METHODS USEFUL IN TREATING BRAIN DISEASES” (University of Kansas, priority 2019, published 2022)
